Test results published in paper PMC2715281 (Nature structural & molecular biology, 2009).
Read-outs that look alike come from different tables or passages of the source.

Key:
[1] = biological target: T1, MBP-RAG1 core WT;GST-RAG2 core (mouse (murine);mouse (murine), UniProt P15919;P21784 384-1008;1-383, |); assay: EMSA
T1 sequence 1: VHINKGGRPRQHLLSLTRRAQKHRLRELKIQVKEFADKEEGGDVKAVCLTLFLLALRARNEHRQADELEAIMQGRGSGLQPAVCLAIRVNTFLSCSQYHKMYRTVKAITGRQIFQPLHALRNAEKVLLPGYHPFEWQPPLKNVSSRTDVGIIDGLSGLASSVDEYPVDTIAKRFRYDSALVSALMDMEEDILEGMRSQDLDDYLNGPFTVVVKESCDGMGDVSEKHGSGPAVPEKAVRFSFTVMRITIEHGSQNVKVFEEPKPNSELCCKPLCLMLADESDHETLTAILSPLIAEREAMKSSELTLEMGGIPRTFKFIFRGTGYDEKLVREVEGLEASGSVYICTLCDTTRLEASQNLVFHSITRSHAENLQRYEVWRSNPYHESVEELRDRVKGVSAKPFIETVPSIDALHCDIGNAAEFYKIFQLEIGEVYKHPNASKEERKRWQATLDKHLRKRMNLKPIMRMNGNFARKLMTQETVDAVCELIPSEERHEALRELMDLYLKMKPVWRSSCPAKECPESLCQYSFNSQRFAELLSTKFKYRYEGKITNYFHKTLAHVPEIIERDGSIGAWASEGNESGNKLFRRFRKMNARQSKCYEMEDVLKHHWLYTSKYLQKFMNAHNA
T1 sequence 2: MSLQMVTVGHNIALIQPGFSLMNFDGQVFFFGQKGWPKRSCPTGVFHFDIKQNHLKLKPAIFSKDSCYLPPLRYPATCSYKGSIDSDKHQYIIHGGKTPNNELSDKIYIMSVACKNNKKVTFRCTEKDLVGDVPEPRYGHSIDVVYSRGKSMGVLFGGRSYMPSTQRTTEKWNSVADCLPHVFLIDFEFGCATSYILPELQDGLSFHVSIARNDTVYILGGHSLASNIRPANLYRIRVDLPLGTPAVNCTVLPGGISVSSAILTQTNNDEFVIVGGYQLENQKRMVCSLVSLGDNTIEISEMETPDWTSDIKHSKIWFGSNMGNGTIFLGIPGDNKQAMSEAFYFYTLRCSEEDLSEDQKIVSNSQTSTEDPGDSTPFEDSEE

[2] = biological target: MBP-RAG1 core WT;GST-RAG2 core;His-HMGB1 (mouse (murine);mouse (murine);human, UniProt P15919;P21784;P09429 384-1008;1-383;1-215, ||); assay: EMSA
SEC + SEC-MALS = biological target: the molecule itself; assay: SEC + SEC-MALS
RAG1 NBD [3] = biological target: T2, RAG1 NBD (mouse (murine), UniProt P15919 389-464); assay: crystal structure
T2 sequence: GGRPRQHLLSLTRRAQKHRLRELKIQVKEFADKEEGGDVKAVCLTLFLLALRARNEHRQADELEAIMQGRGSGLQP

RAG1 NBD [4] = biological target: T2, RAG1 NBD; assay: crystal structure; remark: listed apart in the source

Chain of MBP-RAG1 core WT;GST-RAG2 core;His-HMGB1 (P09429 whole entry, one chain of several): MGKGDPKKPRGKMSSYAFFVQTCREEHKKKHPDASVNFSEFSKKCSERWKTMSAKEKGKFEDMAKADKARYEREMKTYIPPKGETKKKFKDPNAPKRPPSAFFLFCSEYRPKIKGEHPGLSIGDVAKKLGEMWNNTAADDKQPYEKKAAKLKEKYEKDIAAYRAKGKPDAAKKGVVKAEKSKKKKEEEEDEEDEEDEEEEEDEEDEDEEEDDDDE

B1: Consensus 12RSS (dsDNA)
DNA 1: GATCTGGCCTGTCTTACACAGTGATACAGACCTTAACAAAAACCTGCACTCGAGCGGAG
DNA 2: CTCCGCTCGAGTGCAGGTTTTTGTTAAGGTCTGTATCACTGTGTAAGACAGGCCAGATC
Question: How did the binding signal [1] turn out when B1 was run?
Answer: Its binding signal is 1 relative to WT.

Question: Does B1 bind [2]?
Answer: Result: binds

B2: His6-tagged RAG1 nonamer-binding domain (murine RAG1 residues 389-464) (domain or fragment, UniProt P15919 389-464, looked up)
chain: T2 sequence
Question: With B2 as the binder, how does the “stoichiometry N” value (SEC + SEC-MALS) read?
Answer: Its value is 2.

B3: Native crystal 14-mer (nonamer plus 4 bp of 12RSS spacer) (dsDNA)
DNA 1: ACTTAACAAAAACC
DNA 2: TGGTTTTTGTTAAG
Question: Does B3 bind (RAG1 NBD [3])?
Answer: Result: binds

B4: 56DNA crystal 14-mer (symmetrized) (dsDNA)
DNA 1: AGTTTTCAGAAACC
DNA 2: AGGTTTCTGAAAAC
Question: Does B4 bind (RAG1 NBD [4])?
Answer: Result: binds
